# Reference: patent publication US20250195556A1, “COMPOSITIONS, KITS, AND METHODS TO INDUCE ACQUIRED CYTORESISTANCE USING STRESS PROTEIN INDUCERS” (FRED HUTCHINSON CANCER RESEARCH CENTER, priority 2014, published 2025)
# “And” between values parts separate entries of the source, which are not always exact repeats. Identical values can stand only once.
# Columns and labels:
# haptoglobin = assay: Haptoglobin protein expression after SQ injection of myoglobin or myoglobin + PEG; assay type: in vivo, mice; details: 4 hour time point after SQ injection; control 9.5
# Method: Myoglobin+PEG: To a stock solution of 20 mg/ml Mgb in PBS was added 100 mg/ml of PEG-6000; 250 ul. This was administered as a subcutaneous injection in the dorsal neck (250 ul total injection). For combined Mgb/PEG+SnPP, SnPP was added to the above in a concentration of 3 mg/ml.
# HO-1 [1] = assay: Renal cortical HO-1 mRNA (RT-PCR) and protein (ELISA) after IV myoglobin, SnPP or both (Example 1); assay type: in vivo, mice
# Text: The Glycerol Model of AKI. This is a widely used model of rhabdomyolysis-induced AKI that has been employed worldwide for 50 years. The model was used to test whether prophylactic interventions confer protection against AKI. Basically, the protocol is as follows: Male CD-1 mice (35-45 grams), obtained from Charles River Laboratories, Wilmington, M A were studied. Mice were maintained under standard vivarium conditions and generally housed for 1-3 weeks prior to study. The mice were placed in a cylindrical restraining cage, and then were given a tail vein injection of the test substances (see below) or test substance vehicle. The mice were then returned to their cages. Eighteen hours (hrs) later, the mice were briefly anesthetized by isoflurane inhalation, and given an intramuscular injection of hypertonic (50%) glycerol in a dose of 9 ml/Kg body weight. The dose is divided in two, with half injected into the muscle of each of the hind limbs. The mice were then returned to their cages. Eighteen hrs later, the mice were deeply anesthetized with pentobarbital (50-100 mg/Kg), the abdominal cavity was opened through a midline abdominal incision, a blood sample was obtained from the abdominal vena cava and the kidneys were resected. A kidney cross section was obtained and fixed in formalin for subsequent histologic analysis. The terminal blood samples were analyzed for BUN and creatinine, using commercially available assay kits. The remaining kidney tissue was subjected to cortical dissection, and the cortical tissues were then extracted for protein and RNA. The protein samples were saved for analysis of HO-1 levels, and the RNA samples were subjected to RT-PCR to quantify HO-1 mRNA as well as levels of other stress gene mRNAs (e.g. NGAL, haptoglobin, hemopexin, hepicidin).
# Myoglobin+SnPP: To 5 mg of dry myoglobin was added 0.9 ml of PBS+0.1 ml of a stock SnPP solution (50 umole/ml). The resulting final concentrations were 5 mg/ml myoglobin+5 umoles/ml of SnPP. The tail vein was injected with 200 μl of this solution, which equals 1 mg myoglobin+1 umole SnPP. […]
# Four hr post myoglobin vs myoglobin+SnPP vs SnPP alone experiments. To confirm that the myoglobin+SnPP has a synergistic effect in inducing HO-1 mRNA and HO-1 protein levels, each of the above combinations have been administered alone via tail vein injection. Four hrs later, the mice were sacrificed as noted above and the kidneys were harvested for assessment of HO-1 mRNA and protein levels. For additional information regarding methods, see Zager et al., Am J Physiol Renal Physiol. 2014 Jul. 30. Pii.
# [2] = Plasma LDH 4 hr after IV test agents (marker of liver, kidney, lung and heart injury); assay type: in vivo, mice; details: 4 hr IV
# HK-2 cells = assay: Myoglobin toxicity in HK-2 cells, MTT assay; assay type: cell-based; details: 10 mg/mL, 18 hr incubation, vs control incubated cells
# Method: Example 3. […] HK-2 cells (a proximal tubule cell line derived from normal human kidney) were incubated in keratinocyte serum free medium either under normal (control) conditions or in the presence of 10 mg/mL horse skeletal muscle myoglobin or nitrited myoglobin (produced by equimolar Na nitrite addition to 10 mg/ml myoglobin). After 18 hr incubations, the severity of cell injury (% cell death) was assessed by MTT assay. Myoglobin induced 40% cell death (40% decrease in MTT cell uptake), compared to control incubated cells. Nitrite binding to myoglobin reduced cell death by 75%. Thus, nitrite binding is able to reduce myoglobin's cytotoxic effects.
# HO-1 [3] = assay: Renal cortical HO-1 mRNA (RT-PCR) and protein (ELISA) after IV myoglobin, SnPP or both (Example 1); assay type: in vivo, mice; details: 1 mg myoglobin, 1 μmole SnPP
# [4] = read-out: affinity to heme (KD); cited from earlier work
Molecule,Haptoglobin protein expression (haptoglobin) [ng/mg protein],"HO-1 protein expression (by ELISA), Average (HO-1 [1]; cortex, 4 hr IV, 1 mg myoglobin, 1 μmole SnPP, PBS 13.5, carrier 21.5) [ng HO-1/mg protein]","HO-1 protein expression (by ELISA) (HO-1 [1]; cortex, 4 hr IV, 1 mg myoglobin, 1 μmole SnPP, individual mice)","HO-1/GAPDH mRNA, Average (HO-1 [1]; kidney, 4 hr post IV injection, control average 1.93)","HO-1/GAPDH mRNA (HO-1 [1]; kidney, 4 hr post IV injection, individual mice)","Plasma LDH, Average ([2]; carrier 4.43) [Absorbance U LDH/ml]",Plasma LDH ([2]; individual subjects),Cell death (decrease in MTT cell uptake) (HK-2 cells) [%],"HO-1 mRNA induction (HO-1/GAPDH mRNA) (HO-1 [3]; overnight (roughly 18 hrs) post IV, individual subjects)","HO-1 protein induction (HO-1 [3]; overnight (roughly 18 hrs) post IV, individual subjects, in ng/mg protein)","HO-1 mRNA induction (HO-1/GAPDH mRNA), Average (HO-1 [3]; overnight post IV, control 0.46)","HO-1 protein induction, Average (HO-1 [3]; overnight post IV, control 20.5)",Kd [4] [pM]
"Myoglobin: Lyophilized horse skeletal muscle (myoglobin) (Sigma Chemicals) used as the test agent (protein, listed as Homo sapiens) MGLSDGEWQLVLNVWGKVEADIPGHGQEVLIRLFKGHPETLEKFDKFKHLKSEDEMKASEDLKKHGATVLTALGGILKKKGHHEAEIKPLAQSHATKHKIPVKYLEFISECIIQVLQSKHPGDFGADAQGAMNKALELFRKDMASNYKELGFQG",32.7 ± 6.3,45.4,40.7 ng HO-1/mg protein and 40.2 ng HO-1/mg protein and 64.7 ng HO-1/mg protein and 36.0 ng HO-1/mg protein,3.93,7.78 and 2.93 and 2.58 and 2.41,4.47,4.54 Absorbance U LDH/ml (2×) and 3.90 Absorbance U LDH/ml and 4.91 Absorbance U LDH/ml,40,0.71 and 0.53 and 0.51,50.6 and 34.9 and 24.6,0.58,36.7,–
"Hemopexin: 60 kDa plasma protein that sequesters free heme; protective stress protein (background) (protein, listed as Homo sapiens) MARVLGAPVALGLWSLCWSLAIATPLPPTSAHGNVAEGETKPDPDVTERCSDGWSFDATTLDDNGTMLFFKGEFVWKSHKWDRELISERWKNFPSPVDAAFRQGHNSVFLIKGDKVWVYPPEKKEKGYPKLLQDEFPGIPSPLDAAVECHRGECQAEGVLFFQGDREWFWDLATGTMKERSWPAVGNCSSALRWLGRYYCFQGNQFLRFDPVRGEVPPRYPRDVRDYFMPCPGRGHGHRNGTGHGNSTHHGPEYMRCSPHLVLSALTSDNHGATYAFSGTHYWRLDTSRDGWHSWPIAHQWPQGPSAVDAAFSWEEKLYLVQGTQVYVFLTKGGYTLVSGYPKRLEKEVGTPHGIILDSVDAAFICPGSSRLHIMAGRRLWWLDLKSGAQATWTELPWPHEKVDGALCMEKSLGPNSCSANGPGLYLIHGPNLYCYSDVEKLNAAKALPQPQNVTSLLGCTH",–,–,–,–,–,–,–,–,–,–,–,–,< 1
